Results on 1 substance are retold here after paper doi:10.1101/2020.02.08.939488.

pKd: −log10 of the molar value.

The target in this assay is rabbit reticulocyte lysate 60S ribosomal subunit, purified (rabbit) (UniProt G1SV32). The experiment in a line: co-sedimentation.

Broadly, the pKd is the negative decadic logarithm of the Kd, by convention in mol/L. Low readings indicate a high Kd, high ones a low Kd. On to “recombinant full-length Ebp1 with a N-terminal histidine tag (Ebp1-His) (from UniProt P50580 1-394) (natural protein)”, for which the Ebp1 concentration at saturated binding (100 nM 60S) came to 200 nM and the pKd was 6.91.
